From patent US20220211858A1, “TUBULAR SUPRAMOLECULAR POLYMERS” (priority 2019, published 2022)
pIC50: −log10 of the molar value. “Also recorded” adds a separate entry of the source.

How the values were obtained:
[1] = Encapsulation of hydrophobic dyes and paclitaxel in TT 1 nanotubes; assay type: physicochemical
Protocol: A 300 μM in water stock solution of TT 1 prodrug was prepared and aged overnight to form nanotubes. Hydrophobic dyes, such as Coumarin 6 (C6), Nile Red, Rose Bengal lactone (Rose), and IR 780 iodide (IR 780), were dissolved in acetonitrile at a concentration of 600 μM (FIG. 18). To perform the dye encapsulation experiments, 400 μL of the pre-formed nanotube solution and 200 μL of the corresponding dye solution in acetonitrile were mixed together to make a final solution of 600 μL (H2O/MeCN=2:1, v/v) in which the concentration of both prodrug and dye was 200 μM (prodrug/dye=1:1, mol/mol). The resulting mixed nanotube and dye solution was aged overnight to allow the penetration of dye molecules into the nanotube structures and then directly lyophilized to fully remove all the solvents. Next, the lyophilized powder was reconstituted to a final prodrug concentration of 200 μM by the addition of 600 μL of water and vortexing for 60 s. The solutions were aged for at least 6 h before being centrifuged (6000 rpm, 5 min) to remove any precipitated free dye. The supernatant was collected for further study. The dye loading capacity was calculated from the percentage of dye in the supernatant to the sum of encapsulated dye and added prodrugs. To get a higher resolution of dye-doped TT 1 solution, the solutions imaged in FIG. 4A were concentrated to a concentration of 800 μM.
In addition to functional dye molecules, the hydrophobic drug paclitaxel (PTX) was also used as a model compound to dope the TT 1 nanotubes, following the procedure described in the paragraph describing CD measurements of TT solutions above. After encapsulation, analytical HPLC was used to analyze the components of drug-doped nanotubes, monitoring the absorption at 220 nm. […] The concentrations of both nanotube and PTX were determined by comparing the area under the curve of each component with its standard calibration curve, yielding an encapsulation efficiency around 11%. The CD spectrum of PTX-doped nanotube was also recorded, showing a slight decrease in intensity compared with a pure nanotube solution at the same concentration (FIG. 17B).

[2] = test system: U87 MG human brain cancer cells; conditions: 48 h incubation, SRB, CPT concentration
Protocol: The human brain cancer cell line U87 MG was a generous gift from Dr. Wirtz (ChemBE, JHU). DMEM (Invitrogen) containing 10% fetal bovine serum (FBS, Invitrogen) and 1% antibiotics (Invitrogen) was used for the culture of the U87 MG cells. Cancer cells were incubated at 37° C. in a humidified incubator (Oasis, Caron, Marietta, Ohio, USA) with an atmosphere of 5% CO2. […] U87 MG cells were seeded onto 96-well plates (5000 cells/well) and allowed to attach overnight. […] The stock solutions were then diluted with fresh medium to achieve final CPT concentrations of 0.1, 1, 10, 100, 500, 1000, 5000 and 10000 nM. After dilution, the nanotube-containing media were used to incubate cells immediately. Medium containing the same concentration of free CPT ranging from 0.1 to 10000 nM was also used to incubate the cells, with non-treated cells (solvent only) as the control group. In addition, irinotecan at the concentration of 0.1, 1, 5, 10, 50, 100 and 500 μM was employed as a second control. After 48 h incubation, the cell viability was evaluated using the SRB method according to the manufacturer's protocols (TOX-6, Sigma, St. Louis, Mo.).

[3] = Biodistribution study in U87 MG tumor-bearing mice; assay type: in vivo, nude mice
Protocol: Mice bearing subcutaneous tumors were established by injecting 100 μL of a U87 MG suspension in serum-free medium (2×10^6 cells) into the right flank of the mice. When the tumor reached a size of −200 mm^3, the mice were randomly grouped and received one of the following 3 treatments via intravenous injection (n=18 for each group): free CPT (4.5 mg/kg), TT 1 (4.5 mg/kg), and TT 1 (15 mg/kg). Three mice from each group were euthanized at pre-determined time points (1, 2, 4, 8, 12, and 24 h). Plasma, major organs, and tumors were collected and stored at −80° C. for further analysis. To determine the amount of free CPT and TT 1 in the samples, 100 mg tumors were mixed with 900 μL acetonitrile (containing 0.1% TFA) and then homogenized using Precellys Evolution Super Homogenizer (Bertin Technologies, France) for 3×40 s (5,600 shakes/min). The resulting suspensions were centrifuged and the supernatants were collected. For plasma, 50 μL of sample was mixed with 450 μL acetonitrile (containing 0.1% TFA) and sonicated for 1 min. The supernatants were collected using centrifugation. All samples were filtered through a 0.22 μm membrane before analysis by a UPLC system (Waters ACQuity™ Ultra Performance LC) equipped with a reverse-phase column (ACQuity UPLC@BEH, C18, 1.7 μm 2.1×150 mm) and a fluorescence detector (ACQuity FLR, Ex/Em=362/430 nm). The column was flushed with a mixture of water (0.1% TFA) and acetonitrile (0.1% TFA) at 0.3 mL/min with the following gradient: 5% acetonitrile (0-1 min), 5-95% acetonitrile (1-5 min), 95% acetonitrile (5-8 min), 95-5% acetonitrile (8-9 min), and 5% acetonitrile (9-10 min). Peaks with retention times of 5.4 min (free CPT) and 6.9 min (TT 1) were monitored.

[4] = test system: human glioblastoma U87 MG cells; assay: Antitumor efficacy study for systemic delivery, subcutaneous U87 MG tumor; assay type: in vivo, athymic nude mice; conditions: for mean tumor volume: three weeks after treatment
Protocol: A total of 2×10^6 human glioblastoma U87 MG cells were subcutaneously injected into the right shoulder of athymic nude mice (8-9 weeks old). The mice were used for the efficacy study after three to four weeks when the tumor had reached about 190-250 mm^3 in size. […]. Water insoluble free CPT was dissolved/suspended in a mixture of DMSO/ethanol/PEG-400/water (1:1:2:1). CPT (4.5 mg/kg) and irinotecan (60 mg/kg) were administered by intraperitoneal injection, while freshly prepared TT 1 solutions of various doses were administered intravenously by tail vein injection every 4 days for a total of three doses (days 1, 5, and 9). […]. Tumor volumes were measured and recorded every other day. The body weights were measured and recorded every day or every other day. The tumor volume was determined by measuring the tumor in two dimensions with calipers and using the formula “tumor volume=(length×width^2)/2”. Each animal was euthanized once the tumor volume reached the predetermined end point size of 2000 mm^3.

[5] = Physical stability of TT 1 nanotubes upon dilution in cell medium (CD); assay type: physicochemical
Protocol: The stability of non-ionic TT 1 nanotubes upon dilution in cell medium was evaluated by recording the CD spectrum for a series of prepared dilutions. […] A stock solution of TT 1 nanotube was prepared at a concentration of 1 mM in water and aged overnight. The aged solution was then diluted to 200 μM with cell medium. Further dilutions of the 200 μM TT 1 nanotube in cell medium were prepared at 100 μM, 50 μM, 25 μM, 10 μM, and 5 μM concentration. All diluted solutions were incubated for an additional two days before CD measurements were made. All the CD spectra were recorded from 300 to 440 nm using a 1 mm (for 200 μM, 100 μM, and 50 μM) or 10 mm (for 25 μM, 10 μM, and 5 μM) path length quartz cell. The spectra were collected and normalized from ellipticity (mdeg) to molar ellipticity (deg·cm^2·dmol^−1).

CC[C@]1(OC(=O)OCCSSC[C@@H](NC(C)=O)C(=O)N[C@@H](CCCCNC(=O)[C@@H](CSSCCOC(=O)O[C@]2(CC)C(=O)OCc3c2cc2n(c3=O)Cc3cc4ccccc4nc3-2)NC(C)=O)C(=O)N[C@@H](CCCCNC(=O)CCOCCOCCOCCOCCOC)C(=O)N[C@@H](CCCCNC(=O)CCOCCOCCOCCOCCOC)C(N)=O)C(=O)OCc2c1cc1n(c2=O)Cc2cc3ccccc3nc2-1 [TT 1]
dye loading content ([1]; Coumarin 6 (C6) in TT 1 assemblies): 4.5% | dye loading content ([1]; IR-780 in TT 1 assemblies): 10.3% | dye loading content ([1]; Nile Red in TT 1 assemblies): 4.4% | dye loading content ([1]; Rose Bengal lactone in TT 1 assemblies): 14.8% | pIC50 [2]: 6.83 | increase of plasma concentration versus free CPT ([3]; 4.5 mg/kg i.v., 1 hour): approximately 129 fold | increase of tumor concentration versus free CPT ([3]; 4.5 mg/kg i.v., 1 hour): 8 fold | TT 1 converted to free CPT in the tumor ([3]; 4.5 mg/kg, 1 hour after injection): 47% | TT 1 converted to free CPT in the tumor ([3]; 4.5 mg/kg, 8 hours): 82% | TT 1 converted to free CPT in the tumor ([3]; 15 mg/kg, 1 hour after injection): 58% | TT 1 converted to free CPT in the tumor ([3]; 15 mg/kg, 8 hours): 96% | retention in the blood ([3]; i.v.): up to 12 hours | median survival ([4]; TT 1 4.5 mg/kg (CPT equivalent) i.v. days 1, 5, 9): 23 days | tumor volume ([4]; TT 1 4.5 mg/kg, up to 15 days): 417 mm^3 | survival of four out of five mice ([4]; TT 1 9 mg/kg): up to 37 d | median survival ([4]; TT 1 9 mg/kg i.v. days 1, 5, 9): 37 days | mean tumor volume ([4]; TT 1 9 mg/kg): 94 mm^3 | survival of four out of five mice ([4]; TT 1 15 mg/kg): ≤ 43 days | median survival ([4]; TT 1 15 mg/kg i.v. days 1, 5, 9): 43 days | mean tumor volume ([4]; TT 1 15 mg/kg): 59 mm^3 | appearance of solution in cell medium ([5]; after one week): remained clear after one week; also recorded: remains clear after a week | change of CD signal upon dilution ([5]; cell medium with 10% FBS, 10 and 5 μM): slight decreases in intensity; also recorded: slight decrease of CD signal at 389 nm | dissociation of nanotubes upon dilution (CD) ([5]; cell medium with 10% FBS, concentrations above 25 μM, two days): no obvious disassociation; also recorded: minimum dissociation or aggregation
